Consider three molecules from publication PMC3302801, “Regulation of the vapBC-1 Toxin-Antitoxin Locus in Nontypeable Haemophilus influenzae”.

Data set [1] addresses T1, VapB-1 (Haemophilus influenzae (nontypeable, R2866)) (UniProt E4QWH3).
T1 sequence: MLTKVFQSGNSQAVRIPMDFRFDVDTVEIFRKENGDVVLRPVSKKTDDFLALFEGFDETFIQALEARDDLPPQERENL
In words: DNase I footprinting. To be noted: EMSA: 20 mM HEPES pH 7.5, 100 mM NaCl, 0.1 mM EDTA, 1 mM DTT, 50 ug/mL BSA, 5% glycerol, 1 nM DNA, 25 C (gel 4 C); DNase I: 25 mM Tris-HCl pH 7.4, 70 mM KCl ….

Data set [2] addresses T2, VapB-1 (Haemophilus influenzae (nontypeable, …, UniProt E4QWH3 1-78)).
T2 sequence: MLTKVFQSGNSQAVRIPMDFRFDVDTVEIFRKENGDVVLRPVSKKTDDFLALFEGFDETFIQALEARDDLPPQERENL
Kind of data set: EMSA; up to 300:1; EMSA: 20 mM HEPES pH 7.5, 100 mM NaCl, 0.1 mM EDTA, 1 mM DTT, 50 ug/mL BSA, 5% glycerol, 1 nM DNA, 25 C (gel 4 C); DNase I: 25 mM Tris-HCl pH 7.4, 70 mM KCl, 7. To be noted: protein: recombinant; tags: C-terminal polyhistidine (pET24b); chain copies: 2; label: 5'-32P sense strand; blunt.

The target in data set [3] is T2, VapB-1. In words: EMSA; 300:1; EMSA: 20 mM HEPES pH 7.5, 100 mM NaCl, 0.1 mM EDTA, 1 mM DTT, 50 ug/mL BSA, 5% glycerol, 1 nM DNA, 25 C (gel 4 C); DNase I: 25 mM Tris-HCl pH 7.4, 70 mM KCl, 7. To be noted: protein: recombinant; tags: C-terminal polyhistidine (pET24b); chain copies: 2; blunt. (In general: Mobility shift assays separate free from complexed probe on a gel.)

For the molecule “GTTAGGATCCTGAAACACTTTAGTAAGCATATTTACCCTCTCGTATATACTATGTATTTAATAAGTATATACTAATCATTTCAATTGCTGTATGCAAGTAAGAAGATCAAATTACCGTTGTTTTATTTAACCGCAATCATCGAGCGAATTCTAA (double strand) [153 bp vapBC-1 locus control region]”, the binding result in data set [1] is “no binding”.

B1: 50TIR (dsDNA)
DNA 1: AATGATTAGTATATACTTATTAAATACATAGTATATACGAGAGGGTAAAT
DNA 2: ATTTACCCTCTCGTATATACTATGTATTTAATAAGTATATACTAATCATT
B1: the binding result in the data set with VapB-1 [2] is given as “no binding”.

B2: 50US (dsDNA)
DNA 1: AACAACGGTAATTTGATCTTCTTACTTGCATACAGCAATTGAAATGATTA
DNA 2: TAATCATTTCAATTGCTGTATGCAAGTAAGAAGATCAAATTACCGTTGTT
For the molecule B2, the binding result with VapB-1 [3] was “no binding”.
